Three molecules from US20190359687A1 (Bayer, published 2019) can be followed below.

No end group written: not given here. *: point of attachment. Biotin = O=C1N[C@H]2[C@H](CS[C@H]2CCCCC(=O)*)N1

To fix the notation:
B3: human glycophorin A in the red blood cell membrane (other, UniProt P02724 20-150, looked up)
chain: LSTTEVAMHTSTSSSVTKSYISSQTNDTHKRDTYAATPRAHEVSEISVRTVYPPEEETGERVQLAHHFSEPEITLIIFGVMAGVIGTILLISYGIRRLIKKSPSDVKPLPSPDTDVPLSSVEIENPETSDQ
notes: whole, on cells; used for intact RBC, isolated RBC membranes and transfected cells; the assay field tells which; also called GPA; hGPA

In assay [1] the target is B3. In words: FACS, scFv-Fc. On the technique in general: In flow cytometry, cells or beads pass a laser one at a time.
For the next assay, the target named is T1, dog red blood cells (dog).
T1 construct: also called dog RBC
Description: FACS, Dog RBC.

Assay [2] has as its target B3. Description: FACS, Human RBC.
In assay [3] the target is T2, Rhesus monkey glycophorin A on Rhesus monkey red blood cells (Rhesus monkey, UniProt A0A1D5Q349 20-150).
T2 construct: whole, on cells; also called Rhesus RBC; monkey GPA
T2 sequence: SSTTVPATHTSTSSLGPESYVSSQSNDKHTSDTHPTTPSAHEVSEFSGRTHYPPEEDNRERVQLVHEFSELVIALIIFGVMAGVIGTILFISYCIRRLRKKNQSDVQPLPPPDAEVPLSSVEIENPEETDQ
In words: FACS, Rhesus RBC.

Assay [4] has as its target T3, Cynomolgus monkey glycophorin A on Cynomolgus monkey red blood cells (Cynomolgus monkey).
T3 construct: whole, on cells; also called Cyno RBC; Cyno GPA
Description: FACS, Cyno #1 RBC.

The target of assay [5] is T3, Cynomolgus monkey glycophorin A on …. In words: FACS, Cyno #2 RBC.
The target is the same in assay [6]. In words: FACS, Cyno #3 RBC.
Another assay addresses T4, GP7 peptide (human).
T4 peptide: Biotin-SVRTVYPP
In words: peptide ELISA, Fab.

For a further assay, the target named is T5, GP8 peptide (human).
T5 peptide: Biotin-VRTVYPPE
In words: peptide ELISA, Fab. (In general: In an ELISA, binding on a coated surface is turned into a signal by an enzyme label.)

A further assay addresses T6, GP9 peptide (human).
T6 peptide: Biotin-RTVYPPEE
Description: peptide ELISA, Fab.

A further assay concerns the target T7, GP10 peptide (human).
T7 peptide: Biotin-TVYPPEEE
In words: peptide ELISA, Fab.

For a further assay, the target named is T8, GP11 peptide (human).
T8 peptide: Biotin-VYPPEEET
In words: peptide ELISA, Fab.

For another assay, the target named is T9, GP12 peptide (human).
T9 peptide: Biotin-YPPEEETG
In words: peptide ELISA, Fab.

For another assay, the target named is T10, GP13 peptide (human).
T10 peptide: Biotin-PPEEETGE
Description: peptide ELISA, Fab.

The target of another assay is T11, GP14 peptide (human).
T11 peptide: Biotin-PEEETGER
Description: peptide ELISA, Fab.

In another assay the target is T12, GP15 peptide (human).
T12 peptide: Biotin-EEETGERV
Description: peptide ELISA, Fab.

A further assay deals with T13, GP16 peptide (human).
T13 peptide: Biotin-EETGERVQ
Description: peptide ELISA, Fab.

Assay [7] has as its target B3. Description: SPR, human RBC membranes, Fab. A general note: SPR reads the build-up and loss of mass on a sensor chip optically.
Description: Kinetic analysis of the antibody binding to human red blood cell membranes was also performed using surface plasmon resonance (SPR) using a Biacore instrument. In this assay membranes prepared from human red blood cells were attached to a L1 sensor matrix and antibodies were flowed over the RBC membranes.
Assay [8] addresses T14, GP5-11 alanine scanning peptide (human, N-terminal biotin).
T14 construct: GP5 with alanine at position 11
T14 peptide: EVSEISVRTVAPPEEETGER
Description: alanine scanning peptide ELISA.

Assay [9] has as its target T15, GP5-13 alanine scanning peptide (human, N-terminal biotin).
T15 construct: GP5 with alanine at position 13
T15 peptide: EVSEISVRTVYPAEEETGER
Description: alanine scanning peptide ELISA.

Assay [10] addresses T16, GP5-14 alanine scanning peptide (human, N-terminal biotin).
T16 construct: GP5 with alanine at position 14
T16 peptide: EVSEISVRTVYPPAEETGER
Description: alanine scanning peptide ELISA.

The target of assay [11] is T17, GP5-16 alanine scanning peptide (human, N-terminal biotin).
T17 construct: GP5 with alanine at position 16
T17 peptide: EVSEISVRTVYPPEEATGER
In words: alanine scanning peptide ELISA.

The target of the next assay is T18, B-domain deleted FVIII (human, UniProt P00451 20-2351).
T18 construct: control without scFv; also called BDD; BDD-FVIII
T18 sequence (looked up): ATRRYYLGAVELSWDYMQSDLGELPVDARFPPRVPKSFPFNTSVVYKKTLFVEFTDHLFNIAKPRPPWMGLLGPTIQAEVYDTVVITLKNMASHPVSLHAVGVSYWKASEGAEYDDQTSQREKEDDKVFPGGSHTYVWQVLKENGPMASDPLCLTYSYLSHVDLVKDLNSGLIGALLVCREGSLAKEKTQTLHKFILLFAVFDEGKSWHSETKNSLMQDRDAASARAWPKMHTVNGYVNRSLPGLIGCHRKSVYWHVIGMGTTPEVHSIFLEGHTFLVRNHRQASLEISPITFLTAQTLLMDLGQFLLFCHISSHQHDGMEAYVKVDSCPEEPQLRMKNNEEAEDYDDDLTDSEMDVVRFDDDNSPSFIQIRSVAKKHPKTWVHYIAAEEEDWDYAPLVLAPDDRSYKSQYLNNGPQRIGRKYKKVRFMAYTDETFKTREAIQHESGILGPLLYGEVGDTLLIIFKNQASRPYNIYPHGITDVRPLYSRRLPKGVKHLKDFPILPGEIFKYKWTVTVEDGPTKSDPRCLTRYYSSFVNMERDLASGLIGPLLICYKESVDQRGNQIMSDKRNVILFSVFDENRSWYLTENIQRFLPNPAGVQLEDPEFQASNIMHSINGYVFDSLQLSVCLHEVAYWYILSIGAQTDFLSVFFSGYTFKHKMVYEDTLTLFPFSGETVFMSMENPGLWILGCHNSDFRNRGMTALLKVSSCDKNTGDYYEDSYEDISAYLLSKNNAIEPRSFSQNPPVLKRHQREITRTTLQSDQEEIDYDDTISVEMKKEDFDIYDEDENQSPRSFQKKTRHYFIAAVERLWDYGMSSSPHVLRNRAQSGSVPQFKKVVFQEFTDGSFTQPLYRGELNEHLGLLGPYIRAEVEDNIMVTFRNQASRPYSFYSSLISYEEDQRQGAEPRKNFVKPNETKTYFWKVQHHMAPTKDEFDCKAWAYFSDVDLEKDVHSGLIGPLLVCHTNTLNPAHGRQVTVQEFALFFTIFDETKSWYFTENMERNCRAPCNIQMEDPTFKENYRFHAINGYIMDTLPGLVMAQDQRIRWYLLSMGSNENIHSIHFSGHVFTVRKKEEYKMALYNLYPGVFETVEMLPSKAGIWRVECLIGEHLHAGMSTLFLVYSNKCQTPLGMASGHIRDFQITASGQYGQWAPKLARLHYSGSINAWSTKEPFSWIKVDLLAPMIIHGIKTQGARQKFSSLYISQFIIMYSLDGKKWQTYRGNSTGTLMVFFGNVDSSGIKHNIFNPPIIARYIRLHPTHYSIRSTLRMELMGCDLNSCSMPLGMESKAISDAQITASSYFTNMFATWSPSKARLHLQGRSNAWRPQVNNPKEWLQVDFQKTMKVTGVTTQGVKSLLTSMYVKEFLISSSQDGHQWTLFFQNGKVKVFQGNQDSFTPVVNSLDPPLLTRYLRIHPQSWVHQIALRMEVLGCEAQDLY
In words: RBC partition assay, FVIII activity left in plasma.

Description for GP10 peptide: (§1) These peptides were attached to the surface of a streptavidin coated plate via a biotin moiety that was present at the N-terminus of each peptide.
Description for GP11 peptide: as §1
Description for GP12 peptide: as §1
Description for GP13 peptide: as §1
Description for GP14 peptide: as §1
Description for GP15 peptide: as §1
Description for GP16 peptide: as §1
Description for GP7 peptide: as §1
Description for GP8 peptide: as §1
Description for GP9 peptide: as §1

B1: 1H5 scFv-Fc (Fc fusion)
scFv: QVQLQQSGAELARPGASVKMSCKASGYTFTSYSIHWIKQRPGQSLEWIGYINPNSDYANYNQKFKDKATLTTDKSSTTAYMQLSSLTTDDSAVYYCQTGTRDYWGQGTTLTVSSGGGGSGGGGSGGGGSDIVMTQSPSSLSVSAGEKVTMSCKSSQSLLNSGNQKNYLAWYQQKPGQPPKLLIYGASTRESGVPDRFTGSGSGTDFTLTISSVQAEDLAVYYCQNDHSYPYTFGGGTKLEIKGGGGAGGGGCKPCICTVPEVSSVFIFPPKPKDVLTITLTPKVTCVVVDISKDDPEVQFSWFVDDVEVHTAQTQPREEQFNSTFRSVSELPIMHQDWLNGKEFKCRVNSAAFPAPIEKTISKTKGRPKAPQVYTIPPPKEQMAKDKVSLTCMITDFFPEDITVEWQWNGQPAENYKNTQPIMDTDGSYFVYSKLNVQKSNWEAGNTFTCSVLHEGLHNHHTEKSLSHSPGK
notes: as m18
Consider B1, for which the binding result in assay [1] is “no binding”. The FACS signal (in the assay with dog red blood cells; in assay [2]; in [3]; in [4]; in assay [5]; in [6]) was 1 Flourescent units each time.

B2: TPP-5906 Fab (Fab, V domains shown)
VH: EVQLVQSGAEVKKPGASVKVSCKASGYTFTTYTIHWVRQAPGQGLEWMGYINPSSGYTRYNPKFKGRVTMTRDKSTSTAYMELRSLRSDDTAVYYCQTGTRDYWGQGTTVTVSS
VL: DIQLTQSPSFLSASVGDRVTITCRASSSVSYIYWFQQKPGKAPKLLIYATSTLQSGVPSRFSGSGSGTEYTLTISSLQPEDFATYYCHQRNSFPYTFGQGTKLEIKR
notes: also called parental humanized and germlined 6C12 Fab
As to B2, the binding result with GP7 peptide, with GP8 peptide, in the assay with GP9 peptide, with GP10 peptide, with GP11 peptide and in the assay with GP12 peptide was “no binding (tested: 0.5 ug/ml)” in each case. In addition, the binding result with GP13 peptide, with GP14 peptide, in the assay with GP15 peptide and with GP16 peptide was “no binding (tested: 0.5 ug/ml)” throughout. The “fold improvement of affinity against the parental antibody” value in assay [7] was around 200 fold. Also, the “percent reduction of binding” value is above 95% in assay [8], 70% in [9], above 95% in assay [10] and 50% in [11].

Turning to B3, the binding result with B-domain deleted FVIII is given as “no binding (tested: 1 IU/mL)”.
